According to PMC9307851:

How the values were obtained:
[1] = target: DNMT3B MTase domain L664P (human, UniProt Q9UBC3 569-853, L664P); test: ITC; 5 C; N.M. (not measurable); text says much reduced; ITC: 20 mM Tris-HCl pH 7.2, 200 mM NaCl, 5% glycerol, 2 mM b-mercaptoethanol, 5 C; EMSA: 50 mM Tris-HCl pH 8.0, 25% glycerol, 8% glucose, 2 mM DTT, 0.1 mg/mL BSA, 30 min, gel in 0.5x TBE at 4 C; conditions: protein: recombinant; tags: His6-MBP removed by TEV; (only upper strand given)
[2] = target: DNMT3B MTase domain R670Q (human, UniProt Q9UBC3 569-853, R670Q); test: ITC; 5 C; N fixed at 0.5; ITC: 20 mM Tris-HCl pH 7.2, 200 mM NaCl, 5% glycerol, 2 mM b-mercaptoethanol, 5 C; EMSA: 50 mM Tris-HCl pH 8.0, 25% glycerol, 8% glucose, 2 mM DTT, 0.1 mg/mL BSA, 30 min, gel in 0.5x TBE at 4 C; conditions: protein: recombinant; tags: His6-MBP removed by TEV; (only upper strand given)

B1: 24-mer DNA duplex (GAC)8 (dsDNA)
DNA 1: GACGACGACGACGACGACGACGAC
DNA 2: GTCGTCGTCGTCGTCGTCGTCGTC
Question: Does B1 bind [1]?
Answer: Result: no binding

Question: And the Kd [2]?
Answer: Its Kd is 24.4 ± 4.4 µM.
